The values below come from PMC9394474 (Viruses, 2022).

What all share (assay): ITC
Common to all, as to settings: both partners purified

The target in one assay is T1, mouse TRIM7-PRYSPRY (mouse, UniProt Q923T7 342-510).
T1 construct: vector pOPTH; also called mTRIM7; mTrim7-PRYPSRY

A further assay deals with T2, human hisTRIM7-PRYSPRY (human, UniProt Q9C029 342-511).
T2 construct: vector pOPTH; also called hTRIM7-PRYSPRY; hTRIM7

The next assay deals with hisMBP-TRIM7-CC-PRYSPRY (human, UniProt Q9C029 165-511).

B1: rabbit glycogenin-1, full length (natural protein)
chain: MTDQAFVTLTTNDAYAKGALVLGSSLKQHRTSRRLAVLTTPQVSDTMRKALEIVFDEVITVDILDSGDSAHLTLMKRPELGVTLTKLHCWSLTQYSKCVFMDADTLVLANIDDLFEREELSAAPDPGWPDCFNSGVFVYQPSVETYNQLLHVASEQGSFDGGDQGLLNTFFNSWATTDIRKHLPFIYNLSSISIYSYLPAFKAFGANAKVVHFLGQTKPWNYTYDTKTKSVRSEGHDPTMTHPQFLNVWWDIFTTSVVPLLQQFGLVQDTCSYQHVEDVSGAVSHLSLGETPATTQPFVSSEERKERWEQGQADYMGADSFDNIKKKLDTYLQ
notes: vector pOPTH; also called rbGYG1; full-length rbGYG1
Turning to B1, in the assay with mouse TRIM7-PRYSPRY, the binding result is given as “binds”.

B2: AAAAALQ (peptide)
peptide: AAAAALQ
Regarding B2, binding in the assay with human hisTRIM7-PRYSPRY was characterised by a dissociation constant (Kd) of 8 µM.

B3: mouse glycogenin-1, full length (natural protein)
chain: MTDQAFVTLTTNDAYAKGALVLGSSLKQHRTTRRMVVLTSPQVSDSMRKVLETVFDDVIMVDVLDSGDSAHLTLMKRPELGITLTKLHCWSLTQYSKCVFMDADTLVLSNIDDLFEREELSAAPDPGWPDCFNSGVFVYQPSIETYNQLLHLASEQGSFDGGDQGLLNTYFSGWATTDITKHLPFVYNLSSISIYSYLPAFKAFGKNAKVVHFLGRTKPWNYTYNPQTKSVNCDSQDPTVSHPEFLNLWWDTFTTNVLPLLQHHGLVKDASSYLMMEHVSGALSDLSFGEAPAAPQPSMSSEERKERWEQGQADYMGADSFDNIKRKLDTYLQ
notes: also called mGYG1; mGYG
With B3, the binding result in the assay with mouse TRIM7-PRYSPRY was “binds”.

B4: hexahistidine-tagged full-length human GYG1, GN1 isoform (natural protein)
chain: MTDQAFVTLTTNDAYAKGALVLGSSLKQHRTTRRLVVLATPQVSDSMRKVLETVFDEVIMVDVLDSGDSAHLTLMKRPELGVTLTKLHCWSLTQYSKCVFMDADTLVLANIDDLFDREELSAAPDPGWPDCFNSGVFVYQPSVETYNQLLHLASEQGSFDGGDQGILNTFFSSWATTDIRKHLPFIYNLSSISIYSYLPAFKVFGASAKVVHFLGRVKPWNYTYDPKTKSVKSEAHDPNMTHPEFLILWWNIFTTNVLPLLQQFGLVKDTCSYVNVEDVSGAISHLSLGEIPAMAQPFVSSEERKERWEQGQADYMGADSFDNIKRKLDTYLQ
notes: also called hsGYG1-GN1; hGYG1-GN1
For B4, the stoichiometry N (commonly the number of molecules, sites or subunits per partner or assembly) with hisMBP-TRIM7-CC-PRYSPRY came to 1.
